Experiments:
Experiment in all cases: Kinase Profiling Assay
Assay type in all cases: biochemical
Settings in all cases: 100 μM
Bmx(h) = molecular target: T1, Bmx(h) (Homo sapiens, UniProt P51813)
T1 sequence (P51813 1-675): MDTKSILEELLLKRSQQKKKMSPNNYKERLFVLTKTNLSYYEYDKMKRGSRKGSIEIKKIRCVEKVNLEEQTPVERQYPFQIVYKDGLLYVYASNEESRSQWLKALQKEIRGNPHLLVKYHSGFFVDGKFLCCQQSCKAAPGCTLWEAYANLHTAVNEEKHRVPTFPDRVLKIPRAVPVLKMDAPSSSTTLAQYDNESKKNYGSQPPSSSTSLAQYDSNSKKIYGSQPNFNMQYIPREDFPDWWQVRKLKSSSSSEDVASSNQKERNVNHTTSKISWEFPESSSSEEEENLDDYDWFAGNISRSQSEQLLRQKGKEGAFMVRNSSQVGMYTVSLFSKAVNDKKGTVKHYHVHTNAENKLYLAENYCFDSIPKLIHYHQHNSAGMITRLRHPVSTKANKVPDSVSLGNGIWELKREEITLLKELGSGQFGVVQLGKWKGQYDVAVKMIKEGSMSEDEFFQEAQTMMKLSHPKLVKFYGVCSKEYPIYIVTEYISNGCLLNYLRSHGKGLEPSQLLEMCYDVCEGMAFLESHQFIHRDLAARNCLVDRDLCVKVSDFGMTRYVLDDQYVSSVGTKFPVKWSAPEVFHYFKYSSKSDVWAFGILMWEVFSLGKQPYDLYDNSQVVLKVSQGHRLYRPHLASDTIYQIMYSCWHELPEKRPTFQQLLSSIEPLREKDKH

CHK2(R145W)(h) = CHK2(R145W)(h) (Homo sapiens, UniProt O96017, R145W)
GRK7(h) = molecular target: T2, GRK7(h) (Homo sapiens, UniProt Q8WTQ7)
T2 sequence (Q8WTQ7 1-553): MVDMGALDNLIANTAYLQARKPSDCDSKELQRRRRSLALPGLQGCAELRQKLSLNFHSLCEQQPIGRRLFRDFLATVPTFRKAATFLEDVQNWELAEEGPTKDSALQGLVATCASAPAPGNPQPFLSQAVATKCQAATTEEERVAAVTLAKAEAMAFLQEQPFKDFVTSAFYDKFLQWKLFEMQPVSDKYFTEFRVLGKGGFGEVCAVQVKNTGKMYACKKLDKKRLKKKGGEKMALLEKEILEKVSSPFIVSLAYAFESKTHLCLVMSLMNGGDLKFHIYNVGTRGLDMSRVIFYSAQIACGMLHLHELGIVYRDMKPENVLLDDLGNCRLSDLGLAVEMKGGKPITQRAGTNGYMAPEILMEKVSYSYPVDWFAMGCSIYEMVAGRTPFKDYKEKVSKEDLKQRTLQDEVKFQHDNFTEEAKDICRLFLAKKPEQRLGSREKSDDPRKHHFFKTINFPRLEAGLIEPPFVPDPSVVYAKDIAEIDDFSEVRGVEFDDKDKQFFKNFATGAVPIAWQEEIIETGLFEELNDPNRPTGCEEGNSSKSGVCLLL

IR(h) = IR(h) (Homo sapiens, UniProt P06213)
LOK(h) = LOK(h) (Homo sapiens, UniProt O94804)
NEK6(h) = NEK6(h) (Homo sapiens, UniProt Q9HC98)
PKG1α(h) = molecular target: T3, PKG1α(h) (Homo sapiens, UniProt Q13976)
T3 sequence (Q13976 1-671): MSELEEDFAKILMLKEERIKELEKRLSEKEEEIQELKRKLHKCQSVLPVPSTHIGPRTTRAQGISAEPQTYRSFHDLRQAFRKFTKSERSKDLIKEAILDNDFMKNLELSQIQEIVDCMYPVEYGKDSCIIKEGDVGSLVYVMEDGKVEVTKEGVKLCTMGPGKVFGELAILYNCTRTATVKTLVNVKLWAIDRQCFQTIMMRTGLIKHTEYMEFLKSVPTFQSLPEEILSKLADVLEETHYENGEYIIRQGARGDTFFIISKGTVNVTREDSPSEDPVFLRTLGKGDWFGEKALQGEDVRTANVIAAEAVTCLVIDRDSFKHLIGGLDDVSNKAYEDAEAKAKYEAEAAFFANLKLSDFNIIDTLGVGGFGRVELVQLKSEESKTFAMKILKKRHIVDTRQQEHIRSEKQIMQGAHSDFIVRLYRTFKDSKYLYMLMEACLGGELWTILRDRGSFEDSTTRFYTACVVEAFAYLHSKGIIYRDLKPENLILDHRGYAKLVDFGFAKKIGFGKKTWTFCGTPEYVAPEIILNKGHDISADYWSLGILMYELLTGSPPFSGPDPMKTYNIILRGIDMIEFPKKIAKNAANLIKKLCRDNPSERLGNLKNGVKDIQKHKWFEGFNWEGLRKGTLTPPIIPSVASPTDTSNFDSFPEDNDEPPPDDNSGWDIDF

Src(1-530)(h) = molecular target: T4, Src(1-530)(h) (Homo sapiens, UniProt P12931)
T4 construct: Src(1-530)(h)

CHK1(h) = molecular target: T5, CHK1(h) (Homo sapiens, UniProt O14757)
T5 sequence (O14757 1-476): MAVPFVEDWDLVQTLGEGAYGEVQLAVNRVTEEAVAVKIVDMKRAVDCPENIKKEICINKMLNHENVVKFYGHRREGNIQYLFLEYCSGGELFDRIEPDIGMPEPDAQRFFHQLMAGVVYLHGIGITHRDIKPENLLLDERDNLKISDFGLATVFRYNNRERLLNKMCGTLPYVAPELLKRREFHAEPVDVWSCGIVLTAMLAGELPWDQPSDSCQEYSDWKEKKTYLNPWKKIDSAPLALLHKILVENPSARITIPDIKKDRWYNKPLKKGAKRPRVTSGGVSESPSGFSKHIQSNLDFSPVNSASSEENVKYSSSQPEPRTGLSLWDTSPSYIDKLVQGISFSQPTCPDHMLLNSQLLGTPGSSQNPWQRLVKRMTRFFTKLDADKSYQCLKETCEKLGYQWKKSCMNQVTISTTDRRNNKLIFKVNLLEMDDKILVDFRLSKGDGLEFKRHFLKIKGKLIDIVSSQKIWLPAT

MAPK2(h) = MAPK2(h) (Homo sapiens, UniProt P28482)
MINK(h) = MINK(h) (Homo sapiens, UniProt Q8N4C8)
Chain of MINK(h) (Q8N4C8 whole entry): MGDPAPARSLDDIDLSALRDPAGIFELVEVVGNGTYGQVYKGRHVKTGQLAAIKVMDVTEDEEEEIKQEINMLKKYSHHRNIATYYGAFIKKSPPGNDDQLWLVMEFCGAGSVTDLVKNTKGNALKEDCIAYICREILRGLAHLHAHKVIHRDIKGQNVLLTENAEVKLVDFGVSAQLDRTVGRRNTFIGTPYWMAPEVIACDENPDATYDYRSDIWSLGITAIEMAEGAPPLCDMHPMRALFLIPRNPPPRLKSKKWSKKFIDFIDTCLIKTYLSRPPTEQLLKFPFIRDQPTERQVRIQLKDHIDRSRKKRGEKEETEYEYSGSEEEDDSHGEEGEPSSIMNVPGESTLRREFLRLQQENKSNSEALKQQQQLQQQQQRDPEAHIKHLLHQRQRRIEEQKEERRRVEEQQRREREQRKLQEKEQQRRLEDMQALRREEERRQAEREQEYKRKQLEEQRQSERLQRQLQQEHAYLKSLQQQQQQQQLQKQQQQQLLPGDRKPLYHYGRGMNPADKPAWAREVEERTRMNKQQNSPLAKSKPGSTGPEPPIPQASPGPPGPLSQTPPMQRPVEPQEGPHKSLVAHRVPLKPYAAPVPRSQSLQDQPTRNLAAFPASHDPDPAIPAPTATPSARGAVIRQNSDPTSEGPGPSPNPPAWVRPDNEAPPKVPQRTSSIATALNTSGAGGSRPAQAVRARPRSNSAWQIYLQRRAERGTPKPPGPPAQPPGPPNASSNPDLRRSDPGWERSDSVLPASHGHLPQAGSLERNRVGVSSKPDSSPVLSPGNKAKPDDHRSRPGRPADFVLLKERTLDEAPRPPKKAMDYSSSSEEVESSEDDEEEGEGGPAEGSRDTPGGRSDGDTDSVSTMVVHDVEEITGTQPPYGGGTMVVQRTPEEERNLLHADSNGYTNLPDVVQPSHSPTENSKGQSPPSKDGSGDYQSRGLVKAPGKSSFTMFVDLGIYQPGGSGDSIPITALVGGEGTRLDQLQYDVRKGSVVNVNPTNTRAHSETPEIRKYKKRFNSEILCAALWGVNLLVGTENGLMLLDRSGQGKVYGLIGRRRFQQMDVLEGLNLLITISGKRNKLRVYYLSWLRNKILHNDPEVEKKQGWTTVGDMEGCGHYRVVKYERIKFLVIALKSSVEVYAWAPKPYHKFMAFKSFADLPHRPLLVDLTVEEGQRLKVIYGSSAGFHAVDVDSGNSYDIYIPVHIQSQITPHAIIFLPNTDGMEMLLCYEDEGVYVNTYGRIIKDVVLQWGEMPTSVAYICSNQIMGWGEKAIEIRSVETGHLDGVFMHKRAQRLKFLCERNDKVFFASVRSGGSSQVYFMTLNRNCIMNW

Chain of CHK2(R145W)(h) (O96017 whole entry R145W): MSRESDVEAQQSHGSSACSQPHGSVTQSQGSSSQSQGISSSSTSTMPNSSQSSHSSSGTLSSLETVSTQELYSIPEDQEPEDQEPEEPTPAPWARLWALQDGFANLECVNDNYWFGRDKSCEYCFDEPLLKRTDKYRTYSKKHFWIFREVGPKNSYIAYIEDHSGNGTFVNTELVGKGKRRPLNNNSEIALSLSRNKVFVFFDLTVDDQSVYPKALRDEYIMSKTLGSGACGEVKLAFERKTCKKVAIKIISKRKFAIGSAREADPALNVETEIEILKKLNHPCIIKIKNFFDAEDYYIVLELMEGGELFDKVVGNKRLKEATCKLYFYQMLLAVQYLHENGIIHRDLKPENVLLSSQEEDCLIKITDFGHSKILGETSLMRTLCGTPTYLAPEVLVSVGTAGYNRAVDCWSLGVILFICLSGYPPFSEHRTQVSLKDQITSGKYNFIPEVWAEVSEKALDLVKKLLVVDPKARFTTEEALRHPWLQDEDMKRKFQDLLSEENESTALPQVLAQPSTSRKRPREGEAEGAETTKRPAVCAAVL
Chain of MAPK2(h) (P28482 whole entry): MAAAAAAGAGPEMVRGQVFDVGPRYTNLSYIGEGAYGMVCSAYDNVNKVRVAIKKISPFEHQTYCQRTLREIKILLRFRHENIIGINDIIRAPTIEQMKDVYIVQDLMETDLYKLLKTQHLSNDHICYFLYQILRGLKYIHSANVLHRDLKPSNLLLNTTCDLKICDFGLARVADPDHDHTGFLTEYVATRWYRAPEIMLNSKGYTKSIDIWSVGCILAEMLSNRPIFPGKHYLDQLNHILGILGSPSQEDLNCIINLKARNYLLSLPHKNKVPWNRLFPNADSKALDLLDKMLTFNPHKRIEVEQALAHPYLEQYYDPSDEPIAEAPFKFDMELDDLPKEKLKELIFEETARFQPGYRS
Chain of LOK(h) (O94804 whole entry): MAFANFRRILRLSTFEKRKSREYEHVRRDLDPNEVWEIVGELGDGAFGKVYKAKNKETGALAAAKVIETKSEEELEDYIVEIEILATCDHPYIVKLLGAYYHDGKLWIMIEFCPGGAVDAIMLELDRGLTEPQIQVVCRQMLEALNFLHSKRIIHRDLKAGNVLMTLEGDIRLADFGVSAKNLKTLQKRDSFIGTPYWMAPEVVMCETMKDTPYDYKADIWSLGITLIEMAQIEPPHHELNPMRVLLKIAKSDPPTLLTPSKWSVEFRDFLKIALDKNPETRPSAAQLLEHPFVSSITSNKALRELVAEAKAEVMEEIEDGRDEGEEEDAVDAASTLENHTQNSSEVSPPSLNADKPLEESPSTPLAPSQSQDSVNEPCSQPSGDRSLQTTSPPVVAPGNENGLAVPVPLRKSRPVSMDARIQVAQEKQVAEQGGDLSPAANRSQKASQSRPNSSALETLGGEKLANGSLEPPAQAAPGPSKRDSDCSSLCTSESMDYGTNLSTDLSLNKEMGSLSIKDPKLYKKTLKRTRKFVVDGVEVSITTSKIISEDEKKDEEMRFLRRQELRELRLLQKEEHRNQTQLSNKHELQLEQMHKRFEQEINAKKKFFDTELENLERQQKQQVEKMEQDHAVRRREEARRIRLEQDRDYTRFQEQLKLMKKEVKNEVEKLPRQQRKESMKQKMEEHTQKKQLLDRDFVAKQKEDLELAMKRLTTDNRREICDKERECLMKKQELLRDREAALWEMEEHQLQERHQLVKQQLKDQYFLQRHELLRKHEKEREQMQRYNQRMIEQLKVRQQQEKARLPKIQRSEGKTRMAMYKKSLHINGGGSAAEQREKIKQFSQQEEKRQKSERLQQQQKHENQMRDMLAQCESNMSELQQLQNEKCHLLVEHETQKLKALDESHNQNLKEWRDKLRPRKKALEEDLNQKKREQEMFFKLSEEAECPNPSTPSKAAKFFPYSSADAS
Chain of NEK6(h) (Q9HC98 whole entry): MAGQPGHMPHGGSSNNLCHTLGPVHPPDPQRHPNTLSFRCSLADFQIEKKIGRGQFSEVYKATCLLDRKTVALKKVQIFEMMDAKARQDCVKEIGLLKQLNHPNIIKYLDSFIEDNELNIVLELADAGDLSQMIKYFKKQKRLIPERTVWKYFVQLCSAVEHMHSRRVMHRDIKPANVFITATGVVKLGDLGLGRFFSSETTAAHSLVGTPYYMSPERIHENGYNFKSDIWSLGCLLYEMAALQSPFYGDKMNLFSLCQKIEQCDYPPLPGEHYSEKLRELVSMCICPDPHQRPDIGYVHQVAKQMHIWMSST

Sequence	% activity (Bmx(h)) [%]	% activity (CHK2(R145W)(h)) [%]	% activity (GRK7(h)) [%]	% activity (IR(h)) [%]	% activity (LOK(h)) [%]	% activity (NEK6(h)) [%]	% activity (PKG1α(h)) [%]	% activity (Src(1-530)(h)) [%]	% activity (CHK1(h)) [%]	% activity (MAPK2(h)) [%]	% activity (MINK(h)) [%]
YARAAARQARAKALNRQLGVA [MMI-0200]	76	81	124	90	67	98	70	75			
KAFAKLAARLYRKALARQLGVAA [MMI-0400]	26	31	100	85	18	85	58	19	87	93	52
HRRIKAWLKKIKALARQLGVAA [MMI-0500]	45	3	93	95	7	49	25	21	65	60	5
FAKLAARLYRKALARQLGVAA [MMI-0300]		33	122	96	37	82	64	23	91	98	48
